To fix the notation:
B2: His-BAP1-ULD (601–729aa) (domain or fragment, human, UniProt Q92560 601-729, looked up)
chain: KEVVEATDSREKTGMVRPGEPLSGEKYSPKELLALLKCVEAEIANYEACLKEEVEKRKKFKIDDQRRTHNYDEFICTFISMLAQEGMLANLVEQNISVRRRQGVSIGRLHKQRKPDRRKRSRPYKAKRQ
B3: His-ASXL2-AB (261–381aa) (domain or fragment, human, UniProt Q76L83 261-381, looked up)
chain: MKRTKCADIDVETPDSILVNTNLRALINKHTFSVLPGDCQQRLLLLLPEVDRQVGPDGLMKLNGSALNNEFFTSAAQGWKERLSEGEFTPEMQVRIRQEIEKEKKVEPWKEQFFESYYGQS
B4: His-ULD/AB protein complex (pETDuet-1-His-BAP1-ULD+ASXL2-AB) (complex, human)
chain 1: KEVVEATDSREKTGMVRPGEPLSGEKYSPKELLALLKCVEAEIANYEACLKEEVEKRKKFKIDDQRRTHNYDEFICTFISMLAQEGMLANLVEQNISVRRRQGVSIGRLHKQRKPDRRKRSRPYKAKRQ
chain 2: MKRTKCADIDVETPDSILVNTNLRALINKHTFSVLPGDCQQRLLLLLPEVDRQVGPDGLMKLNGSALNNEFFTSAAQGWKERLSEGEFTPEMQVRIRQEIEKEKKVEPWKEQFFESYYGQS

Several values for one entry are separate records, joined by “and”; a condition that tells them apart may be missing. Identical values can stand only once.

In assay [1] the target is B4. The assay is described as follows: SPR. On the technique in general: SPR reads the build-up and loss of mass on a sensor chip optically.
The assay “His-ASXL2-AB (261–381aa)” addresses B3. The assay is described as follows: ITC. In general terms: ITC needs no label: the signal is the heat of the interaction.
The assay “His-BAP1-ULD (601–729aa)” addresses B2. The assay is described as follows: ITC.
The target in another assay is T1, GST-BAP1-ULD (human, UniProt Q92560 601-729).
T1 sequence (looked up): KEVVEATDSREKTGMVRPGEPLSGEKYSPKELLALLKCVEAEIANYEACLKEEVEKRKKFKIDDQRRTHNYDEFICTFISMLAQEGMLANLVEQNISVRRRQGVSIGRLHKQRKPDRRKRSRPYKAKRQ
The assay is described as follows: SPR.

Assay [2] has as its target T2, Full-length His-BAP1 (Bv-His-BAP1-FL-WT) (human, UniProt Q92560 1-729).
T2 sequence (looked up): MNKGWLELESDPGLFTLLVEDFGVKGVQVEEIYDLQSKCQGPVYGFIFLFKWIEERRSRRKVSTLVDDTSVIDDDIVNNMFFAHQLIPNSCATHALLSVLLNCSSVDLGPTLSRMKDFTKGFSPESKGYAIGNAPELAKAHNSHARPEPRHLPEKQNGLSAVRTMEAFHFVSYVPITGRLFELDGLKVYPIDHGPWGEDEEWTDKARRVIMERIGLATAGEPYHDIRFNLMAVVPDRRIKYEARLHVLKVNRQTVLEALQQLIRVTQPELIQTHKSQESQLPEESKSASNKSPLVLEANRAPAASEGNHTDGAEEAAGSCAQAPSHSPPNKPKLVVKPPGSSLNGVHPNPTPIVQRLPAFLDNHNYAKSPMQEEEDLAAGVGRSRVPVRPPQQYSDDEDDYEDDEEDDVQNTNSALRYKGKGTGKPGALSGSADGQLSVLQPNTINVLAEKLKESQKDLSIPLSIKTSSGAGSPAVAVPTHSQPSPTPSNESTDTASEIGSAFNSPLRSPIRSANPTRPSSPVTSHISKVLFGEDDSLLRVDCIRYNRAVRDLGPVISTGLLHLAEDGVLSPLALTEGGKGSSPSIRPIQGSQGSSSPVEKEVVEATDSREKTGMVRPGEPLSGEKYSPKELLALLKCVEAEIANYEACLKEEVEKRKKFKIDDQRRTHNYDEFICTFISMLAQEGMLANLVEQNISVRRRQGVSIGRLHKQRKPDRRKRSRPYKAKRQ
The assay is described as follows: SPR.

These results are taken from PMC8254751 (Molecular cancer research : MCR, 2021).

For orientation: koff means the first-order rate constant of dissociation. High values mean fast dissociation, low ones slow dissociation. The term Kd denotes the equilibrium constant for the complex coming apart. Low readings indicate tighter binding, high ones weaker binding.

B1: GST-BAP1-UCH-WT (1–250 aa) (domain or fragment, human, UniProt Q92560 1-250, looked up)
chain: MNKGWLELESDPGLFTLLVEDFGVKGVQVEEIYDLQSKCQGPVYGFIFLFKWIEERRSRRKVSTLVDDTSVIDDDIVNNMFFAHQLIPNSCATHALLSVLLNCSSVDLGPTLSRMKDFTKGFSPESKGYAIGNAPELAKAHNSHARPEPRHLPEKQNGLSAVRTMEAFHFVSYVPITGRLFELDGLKVYPIDHGPWGEDEEWTDKARRVIMERIGLATAGEPYHDIRFNLMAVVPDRRIKYEARLHVLKV
The molecule B1 returned a koff in assay [1] of 0.044 s⁻¹.

With B2, in the assay with His-ASXL2-AB (261–381aa), the dH is -9.87 kcal/mol.

Regarding B3, the Kd with His-BAP1-ULD (601–729aa) is around 4260 nM; with GST-BAP1-ULD, 134 nM and 67 nM.

On to B4, for which, in assay [2], the Kd was 850 nM and 1910 nM; the koff worked out at 0.033 s⁻¹.
